Patent publication US20110287023A1 (AstraZeneca / MedImmune, published 2011)

Key:
[1] = target: T1, recombinant HMG1 produced in E. coli as a calmodulin binding protein (CBP) fusion (human); experiment: sandwich ELISA: antibody titrated and captured on anti-human IgG Fc, soluble recombinant HMG1 at 2 ug/ml, mouse anti-HMGB1 and anti-mouse IgG-HRP, OD 450
T1 construct: also called rHMG1; rHMGB1
Protocol: (§1) Sandwich ELISA (soluble HMG1): Immunoplates (EIA/RIA plate, High binding, Costar) were coated with anti human IgG Fc at 10 μg/ml in PBS (pH 7.2) and incubated at 4° C. overnight. The coating reagent was removed and the plates were rinsed briefly with PBS. The plates were then blocked with 4% milk for 1 hour at 37° C. and rinsed with PBS. The anti-HMG1 antibodies were diluted in 4% milk. For serial dilutions, the antibodies were used at a starting concentration of 20 μg/ml. The diluted anti-HMG1 antibodies were then added into plate and incubated for 1 hr at 37° C. The plate was then washed 10 times with PBST (PBS/0.1% tween 20) and incubate with antigen (HMGB1, 2 μg/ml; or 0.7 μg/ml for native HMGB1) in 4% milk and incubated at 37° C. for 1 h. The plate was then wash 10 times and incubated with mouse anti-HMGB1, 1 μg/ml in 4% milk at 37° C. for 1 h. The plate was washed 10 times and incubated with anti-mouse IgG-HRP at 1:1000 at 37° C. for 1 h. The plate was then washed and developed. HRP activity was detected with Sureblue HRP substrate (KPL). Plates were read at 450 nm using a Kinetic Microplate Reader (Molecular Devices).

[2] = target: T2, recombinant rat HMGB-1 labelled with europium (rat, UniProt P63159 1-215, limits assumed, Eu label, molar ratio HMGB-1 to Eu 1:5); experiment: inhibition of binding of 2 nM Eu-labelled recombinant rat HMGB-1 to THP-1 cells
T2 construct: also called Europium-labeled HMGB-1
T2 sequence (looked up): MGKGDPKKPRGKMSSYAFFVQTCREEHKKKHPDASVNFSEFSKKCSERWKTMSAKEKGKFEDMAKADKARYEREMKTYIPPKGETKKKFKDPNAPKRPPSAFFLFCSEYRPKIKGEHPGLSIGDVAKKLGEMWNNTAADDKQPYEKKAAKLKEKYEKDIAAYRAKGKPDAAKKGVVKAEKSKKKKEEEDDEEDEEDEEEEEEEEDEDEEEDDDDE
Protocol: HMG1 binding to THP-1 Cells: Recombinant rat HMGB-1 was labeled using Eu-labelling Kit from PerkinElmer. Molar ratio of HMGB-1 to Eu is 1:5. THP-1 were cultured as the protocol from ATCC. Cells were harvested and suspended at concentration 1×10⁶/ml in assay buffer containing 1×DELFIA L*R binding buffer (PerkinElmer), 50% of DELFIA stabilizer (PerkinElmer) and 0.05% of sodium azide. 100 μl of cells (1×10⁵) was added into wells in 96 well cell culture plate. The plate was incubated with gentle shaking at 4° C. for one hour. 100 μl of assay buffer containing 2 nM of Europium-labeled HMGB-1 mixed with various concentrations (333, 166.5, 83.25, 41.6, 20.8, 10.4 and 5.2 nM) of human anti-HMGB1 antibodies E11 or G2 or soluble human RAGE-Fc, were added into each wells respectively. After one hour incubation with gentle shaking at 4° C., the cells were washed four times with 1×L*R wash buffer (PerkinElmer) by centrifuging at 1200 rpm×5 min. 200 μl of enhancement solution was added into each well to dissociate and enhance Eu fluorescence at 615 nm. The fluorescence was measured with Wallac Victor Fluorometer. Assay was performed in triplicate and human antibody R3-47 was used the negative isotype control.

[3] = target: T3, HMGB1 in joint lysate of adjuvant induced arthritis (AIA) rats (rat, UniProt P63159 2-215); experiment: sandwich ELISA: antibody captured on anti-human Fc, AIA joint lysate added, mouse anti-HMGB1 detection, OD 450
T3 construct: also called HMGB1 from arthritis joints; joint lysate HMGB1
T3 sequence (looked up): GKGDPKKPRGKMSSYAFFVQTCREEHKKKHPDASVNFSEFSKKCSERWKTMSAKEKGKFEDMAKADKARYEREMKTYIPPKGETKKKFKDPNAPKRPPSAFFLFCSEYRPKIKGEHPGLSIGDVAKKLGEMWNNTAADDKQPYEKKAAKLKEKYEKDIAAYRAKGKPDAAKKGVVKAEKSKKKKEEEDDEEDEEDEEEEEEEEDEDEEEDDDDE
Protocol: (§2) HMGB1 Detection from Biological Samples: For detection of the HMGB1 from AIA joint homogenates and peritonitis sera, sandwich ELISA was performed. Goat anti-human Fc (Pierce) 14 μg/ml in PBS was coated on Immunlon IV microtiter plate over night at 4° C. After washing and blocking with 5% milk 1 hr at room temperature, G4 or S6 in blocking buffer (10 μg/ml) were added to each well of the blocked plate. The plate was washed 1 hour later and 25 μl of AIA homogenates containing 0.8 μg/ml of HMGB1 or peritonitis sera containing 7 μg/ml of HMGB1 in 0.5 M NaCl/blocking buffer were added to the wells at two fold serial dilutions. The unbound materials were removed by washing one hr after incubation. The bound HMGB1 was detected by a mouse anti-HMGB1 antibody at 2 μg/ml followed by an anti-mouse antibody conjugated with horseradish peroxidase. Mouse peritonitis sera was obtained by heart puncture 7 days after infection with heat killed staphylococcus aureus. Joint lysate was prepared from the whole paw of AIA rats as described in Example 6 below. Human sepsis sera were purchased from a commercial source.

[4] = target: T4, activated HMG1 from LPS stimulated THP-1 cells (human, UniProt P09429 1-215); experiment: sandwich ELISA: antibody titrated and captured on anti-human IgG Fc, activated HMG1 in solution, mouse anti-HMGB1 detection, OD 450
T4 sequence (looked up): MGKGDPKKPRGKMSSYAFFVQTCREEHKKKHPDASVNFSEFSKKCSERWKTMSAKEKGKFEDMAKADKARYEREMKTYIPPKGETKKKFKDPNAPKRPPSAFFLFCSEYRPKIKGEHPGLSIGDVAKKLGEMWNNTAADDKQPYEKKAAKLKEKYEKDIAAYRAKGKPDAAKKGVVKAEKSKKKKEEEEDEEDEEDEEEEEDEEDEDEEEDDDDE
Protocol: as §1

[5] = target: T5, HMGB1 in sera of septic peritonitis mice (mouse, UniProt P63158 1-215); experiment: sandwich ELISA: antibody captured on anti-human Fc, peritonitis serum added, mouse anti-HMGB1 detection, OD 450
T5 construct: also called HMGB1 from sepsis sera (ELISA); peritonitis sera HMGB1
T5 sequence (looked up): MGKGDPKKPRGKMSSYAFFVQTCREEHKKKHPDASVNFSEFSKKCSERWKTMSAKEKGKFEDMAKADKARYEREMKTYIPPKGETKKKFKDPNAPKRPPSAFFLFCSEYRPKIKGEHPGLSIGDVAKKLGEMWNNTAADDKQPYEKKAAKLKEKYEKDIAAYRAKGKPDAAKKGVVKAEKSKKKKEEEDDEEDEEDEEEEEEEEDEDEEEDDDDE
Protocol: as §2

B1: human anti-HMG1 antibody S16 (antibody, IgG1, V domains shown)
VH: EVQLLESGGGLVQPGGSLRLSCAASGFTFSWYSMLWVRQAPGKGLEWVSYISPSGGFTNYADSVKGRFTISRDNSKNTLYLQMNSLRAEDTAVYYCARWDYNSGWYYDHWGQGTLVTVSS
VL: DIQMTQSPDTLSLSPGERATLSCRASQSVNSRNLAWYQQKPGQAPRLLIYGASTRATGIPDRFSGSVSGTEFTLTISSLQPDDFATYYCQQYNSYFTFGQGTKLEIK
notes: full length IgG1 made from a human Fab phage clone; also called ATCC PTA-6259
- EC50 (read off the curve) [1]: ~0.08 mg/L

B2: human anti-HMG1 antibody E11 (antibody, IgG1, V domains shown)
VH: EVQLLESGGGLVQPGGSLRLSCAASGFTFSRYQMNWVRQAPGKGLEWVSSISPSGGHTHYADSVKGRFTISRDNSKNTLYLQMNSLRAEDTAVYYCAKDGRQGKISTVDHWGQGTLVTVSS
VL: DIQMTQSPGTLSLSPGERATLSCRASQSVRSNFLAWYQQKPGQAPRLLIYGASRRASGIPDRFSGSGFGADFTLSISRLEPEDFAVYYCQQYGSSPNTFGQGSRVEIK
notes: full length IgG1 made from a human Fab phage clone
- IC50 [2]: 0.0481 µM

B3: human anti-HMG1 antibody G4 (antibody, IgG1, V domains shown)
VH: EVQLLESGGGLVQPGGSLRLSCAASGFTFSWYDMTWVRQAPGKGLEWVSSISPSGGYTKYADSVKGRFTISRDNSKNTLYLQMNSLRAEDTAVYYCTTEFYDYLDVWGKGTTVTVSS
VL: DIQMTQSPGTLSLSPGEGATLSCRASQSVSSTYLAWYQQKPGQAPRLLIYEASKRATGTPARFSGSGSGTDFTLSISSLEPEDFAVYYCQHRHNWPPQWTFGQGTKVEVK
notes: full length IgG1 made from a human Fab phage clone; also called ATCC PTA-6258
- binding result [3]: binds
- binding result [4]: binds

B4: human anti-HMG1 antibody S6 (antibody, V domains shown)
VH: EVQLLESGGGLVQPGGSLRLSCAASGFTFSWYDMSWVRQAPGKGLEWVSRISPSGGYTMYADSVKGRFTISRDNSKNTLYLQMNSLRAEDTAVYYCARLEVGATSGGTAFDIWGQGTMVTVSS
VL: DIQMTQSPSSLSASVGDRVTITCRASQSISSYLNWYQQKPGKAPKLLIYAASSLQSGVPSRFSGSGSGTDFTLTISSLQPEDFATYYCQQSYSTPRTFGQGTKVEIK
notes: full length IgG1 made from a human Fab phage clone; two paragraphs print 'S4' for the PTA-6143 deposit; also called ATCC PTA-6143
- binding result [5]: binds
